Experimental findings from US20230080534A1, “SEMG2 ANTIBODY AND USE THEREOF” (SHANGHAI BIOTROY BIOTECHNIQUE CO., LTD., priority 2020, published 2023) are described below.

pEC50: −log10 of the molar value.

Assay [1] concerns the target SEMG2(497-509) polypeptide … (human). Nature of the assay: ELISA, immobilized peptide …. Background: In an ELISA, binding on a coated surface is turned into a signal by an enzyme label.
The target of assay [2] is human SEMG2 full-length protein (human) (UniProt Q02383). Nature of the assay: ELISA, immobilized antigen SEMG2 (1-582).
In assay [3] the target is SEMG2(354-403) fragment (human). Nature of the assay: ELISA, immobilized antigen SEMG2 (354-403).
Assay [4] addresses SEMG2(442-453) fragment (human). Kind of assay: ELISA, immobilized antigen SEMG2 (442-453).
Assay [5] deals with SEMG2(497-509) polypeptide … (human). Nature of the assay: ELISA, immobilized antigen SEMG2 (497-509).
Assay [6] has as its target SEMG2(563-574) fragment (human). Nature of the assay: ELISA, immobilized antigen SEMG2 (563-574).
The target in assay [7] is human SEMG2 full-length protein (human) (UniProt Q02383). Kind of assay: ELISA, plate coated with SEMG2 protein; fit value printed for the flat control curve (see non_binding); the EC50 table prints no unit, the axis is log (antibody concentration, nM).

Chain of human SEMG2 full-length protein (human) (Q02383 24-582 limits assumed): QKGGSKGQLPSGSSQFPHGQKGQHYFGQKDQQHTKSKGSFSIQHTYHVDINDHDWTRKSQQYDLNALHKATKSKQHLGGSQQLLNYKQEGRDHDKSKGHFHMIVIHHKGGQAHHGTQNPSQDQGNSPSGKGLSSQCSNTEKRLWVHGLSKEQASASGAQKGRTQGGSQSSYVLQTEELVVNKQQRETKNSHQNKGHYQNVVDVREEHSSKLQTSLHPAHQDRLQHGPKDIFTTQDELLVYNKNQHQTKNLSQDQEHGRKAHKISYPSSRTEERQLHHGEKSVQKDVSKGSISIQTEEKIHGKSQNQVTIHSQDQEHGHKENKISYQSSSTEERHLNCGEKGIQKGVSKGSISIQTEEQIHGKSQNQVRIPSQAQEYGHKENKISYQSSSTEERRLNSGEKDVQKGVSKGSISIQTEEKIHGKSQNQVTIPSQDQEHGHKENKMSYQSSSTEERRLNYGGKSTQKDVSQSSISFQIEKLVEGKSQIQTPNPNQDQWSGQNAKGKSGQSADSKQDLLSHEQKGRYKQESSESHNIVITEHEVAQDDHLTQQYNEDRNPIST
Chain of SEMG2(354-403) fragment (human) (peptide, as listed by the source): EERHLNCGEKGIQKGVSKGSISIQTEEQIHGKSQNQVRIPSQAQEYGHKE

In turn, “HPA042767 (rabbit polyclonal antibody against SEMG2(354-403), Sigma Aldrich)” registered an OD450 absorbance in assay [1] of 0.005. Moreover, the A450 absorbance amounted to 1.16 in assay [2]; 1.14 in assay [3]; 0.007 in assay [4]; 0.002 in assay [5]; 0.011 in assay [6].

As to “HPA042835 (rabbit polyclonal antibody against SEMG2(563-574), Sigma Aldrich)”, the OD450 absorbance in assay [1] was found to be 0.005. The A450 absorbance in assay [2] was found to be 1.17; in assay [3], 0.009; in assay [4], 0.002; in assay [5], 0.009; in assay [6], 1.16.

Take mIgG1 (antibody): the negative-log EC50 (pEC50) in assay [7] was 10.05.

As a reminder, the pEC50 is the negative decadic logarithm of the EC50, by convention in mol/L. A lower pEC50 goes with a high EC50.
